Results on one molecule are retold here after PMC7563123 (Biomolecules, 2020).

What all share (details): both partners purified
Assay [1] addresses T1, amyloid beta peptide 1-42 (Aβ1–42) (human, UniProt P05067 672-713).
T1 construct: amyloid beta peptide of 42 amino acids, human, produced from amyloid precursor protein; numbers count on: the Aβ peptide; One peptide used in two states; Preparation B (NaOH) is called monomeric, though it might hold monomers and low oligomers; Preparation A (plain dilution of the stock) is called oligomeric, and the size of the oligomers is not determined; The states are told apart by the …
The assay is described as follows: SPR; oligomeric Aβ1–42 (Preparation A, dilution of the stock), 1.1-0.055 μM, flowed over cypD or 17β-HSD10 captured by immobilised antibody; running buffer RB1 (10 mM HEPES pH 7.4, BSA 200 μg/mL, 5 mM Na+, 140 mM K+, 1 mM Mg2+); 25 °C, 20 µL/min; global fit, 1:1 Langmuir model. In general terms: In SPR one partner is held on a chip, and binding of the other changes the refractive index at the surface.

The target of assay [2] is T2, amyloid beta peptide 1-40 (Aβ1–40) (human, UniProt P05067 672-711).
T2 construct: amyloid beta peptide of 40 amino acids, human, produced from amyloid precursor protein; numbers count on: the Aβ peptide; Stock dissolved in 1% NH4OH and diluted by PBS to 100 μM; Preparation C (HFIP) is called monomeric, though it might hold monomers and low oligomers; also called monomeric Aβ_(1–40); source: synthetic peptide, bought: AnaSpec
The assay is described as follows: SPR; monomeric Aβ (Aβ1–40 by Preparation C, HFIP; Aβ1–42 by Preparation B, NaOH), five concentrations, flowed over cypD or 17β-HSD10 captured by immobilised antibody; running buffer RB1 (10 mM HEPES pH 7.4, BSA 200 μg/mL, 5 mM Na+, 140 mM K+, 1 mM Mg2+); 25 °C, 20 µL/min; global fit, 1:1 Langmuir model.

For assay [3], the target named is T1, amyloid beta peptide 1-42 (Aβ1–42). The assay is described as above.

Usually Kd stands for the equilibrium constant for the complex coming apart. Read a low Kd as tighter binding. Broadly, the koff is a measure of how fast the partners let go of each other. Higher therefore signals a short-lived complex. As usually defined, the kon is a measure of how fast the partners come together. Low readings indicate slower complex formation, high ones faster complex formation.

B1: cyclophilin D (cypD), human recombinant (enzyme)
chain: not shown
notes: cyclophilin D, human recombinant, NCBI Gene ID 10105; Commercial protein; It was held on the chip by an immobilised anti-cypD antibody; source: bought: Fitzgerald
As to B1, in assay [1], the affinity, expressed as Kd, was 5.3 ± 1.2 nM; the koff was found to be 6.1e-05 s⁻¹; the kon was 11100 M⁻¹ s⁻¹. Besides, in assay [2], the equilibrium dissociation constant (Kd) was 160 ± 57.8 nM, the koff is 0.000174 s⁻¹ and the on-rate (kon) is 1170 M⁻¹ s⁻¹. For the same molecule, in assay [3], binding was put at a Kd of 56.5 ± 5.4 nM, the koff came to 0.000139 s⁻¹ and the kon came out at 2690 M⁻¹ s⁻¹.
